This test deals with biglycan (UniProt P21810). Nature of the test: solid-phase binding assay.
Sequence of UniProt P21810 (P21810 38-368): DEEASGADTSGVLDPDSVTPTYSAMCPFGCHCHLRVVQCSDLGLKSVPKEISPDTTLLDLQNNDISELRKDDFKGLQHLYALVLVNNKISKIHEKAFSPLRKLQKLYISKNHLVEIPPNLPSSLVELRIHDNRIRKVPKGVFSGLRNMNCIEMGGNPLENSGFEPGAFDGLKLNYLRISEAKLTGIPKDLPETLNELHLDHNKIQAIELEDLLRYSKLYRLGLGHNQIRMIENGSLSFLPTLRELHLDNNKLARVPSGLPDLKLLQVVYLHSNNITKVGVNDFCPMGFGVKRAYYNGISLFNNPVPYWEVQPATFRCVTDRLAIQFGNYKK

Substance “LDL with high apoCIII from patients with type 2 diabetes (from UniProt P02656 21-99) (complex)” had a Kd of 8.6 nM.

Turning to “LDL with low apoCIII from patients with type 2 diabetes (from UniProt P02656 21-99) (complex)”, the Kd worked out at 12.2 nM. To “apoCIII-free LDL isolated from diabetic LDL with high apoCIII/apoB molar ratio (natural protein)” belongs 9.8 nM. Substance “apoCIII-free LDL isolated from diabetic LDL with low apoCIII/apoB molar ratio (natural protein)” came in with an equilibrium dissociation constant (Kd) of 12.8 nM.

As usually defined, the Kd is a measure of binding affinity in units of concentration.

The values above are taken from paper PMC2731525.
